Results from patent US20080220459.

Key:
[1] = system: bovine collagen alpha1 (IX) in bovine nasal cartilage explants
[2] = target: human collagen alpha1 (IX) in human articular cartilage (UniProt P20849)
Sequence of human collagen alpha1 (IX) in human articular cartilage (P20849 24-921): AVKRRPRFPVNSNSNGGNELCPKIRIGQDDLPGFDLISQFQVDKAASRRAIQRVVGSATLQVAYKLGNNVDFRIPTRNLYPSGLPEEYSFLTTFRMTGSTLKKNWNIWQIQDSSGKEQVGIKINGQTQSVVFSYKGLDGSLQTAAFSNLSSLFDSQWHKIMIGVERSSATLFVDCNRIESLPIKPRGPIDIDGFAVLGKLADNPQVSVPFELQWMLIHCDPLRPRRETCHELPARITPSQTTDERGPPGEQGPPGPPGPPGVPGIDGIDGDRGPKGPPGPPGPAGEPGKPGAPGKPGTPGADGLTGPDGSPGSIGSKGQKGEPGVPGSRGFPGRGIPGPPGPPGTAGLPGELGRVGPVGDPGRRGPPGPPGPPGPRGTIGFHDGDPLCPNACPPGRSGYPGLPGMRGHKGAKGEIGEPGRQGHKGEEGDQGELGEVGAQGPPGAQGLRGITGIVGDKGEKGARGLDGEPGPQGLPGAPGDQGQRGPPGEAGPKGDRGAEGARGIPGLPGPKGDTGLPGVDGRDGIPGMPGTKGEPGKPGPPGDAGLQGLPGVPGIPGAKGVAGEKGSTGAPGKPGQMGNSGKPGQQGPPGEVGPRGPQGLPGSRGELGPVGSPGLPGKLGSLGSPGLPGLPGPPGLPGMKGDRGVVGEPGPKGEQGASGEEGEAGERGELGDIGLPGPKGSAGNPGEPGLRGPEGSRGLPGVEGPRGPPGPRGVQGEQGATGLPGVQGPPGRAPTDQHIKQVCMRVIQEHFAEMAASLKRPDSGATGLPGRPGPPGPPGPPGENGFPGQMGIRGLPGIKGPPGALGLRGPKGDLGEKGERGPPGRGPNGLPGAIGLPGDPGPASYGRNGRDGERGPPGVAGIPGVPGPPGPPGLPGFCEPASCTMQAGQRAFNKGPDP

matrix metalloproteinase 13 (MMP-13)
cleavage of collagen alpha1 (IX) in cartilage explants (Western blot and LC-MS of released fragments) [1]: Bovine nasal cartilage explants were digested with MMP-13 and indeed the enzyme cleaved collagen α1 (IX) | cleavage of collagen alpha1 (IX) in human articular cartilage (Western blot and LC-MS of the released 30 kD fragment) [2]: a peptide representing a potentially new cleavage site CHELPARITPSQ^263-COOH (SEQ ID NO:6) NH2-TTDERGPP- (SEQ ID NO:7)
